Data on two molecules can be found in PMC6602975 (2019).

For test [1], the target named is Unmodified nucleosome core particle (X. laevis histone octamer on 147 bp Widom-601 DNA) (X. laevis).
Test [2] concerns the target H4K16ac nucleosome (X. laevis | , acetyl-lysine at K16).

B1: Sir3 BAH D205Q (domain or fragment)
chain: MAKTLKDLDGWQVIITDDQGRVIDDNNRRRSRKRGGENVFLKRISDGLSFGKGESVIFNDNVTETYSVYLIHEIRLNTLNNVVEIWVFSYLRWFELKPKLYYEQFRPDLIKEDHPLEFYKDKFFNEVNKSELYLTAELSEIWLKDFIAVGQILPESQWNDSSIDKIEDRDFLVRYACEPTAEKFVPIDIFQIIRRVKEMEPKQSQEYLKRVSVP
The Kd is a measure of binding affinity in units of concentration. For the molecule B1, the figures for the Kd in test [1] and in test [2] were 300 nM and 1200 nM, respectively.

B2: Wild-type Orc1 (1–214) BAH domain (domain or fragment)
chain: MAKTLKDLQGWEIITTDEQGNIIDGGQKRLRRRGAKTEHYLKRSSDGIKLGRGDSVVMHNEAAGTYSVYMIQELRLNTLNNVVELWALTYLRWFEVNPLAHYRQFNPDANILNRPLNYYNKLFSETANKNELYLTAELAELQLFNFIRVANVMDGSKWEVLKGNVDPERDFTVRYICEPTGEKFVDINIEDVKAYIKKVEPREAQEYLKDLTLP
modifications: N-alpha-acetyl on A2 (acetylated at the α-amino group when purified from eukaryotic cells)
With B2, the equilibrium dissociation constant (Kd) in test [1] was determined as 1100 nM. That is a single-digit micromolar value.
